The assay has as its target human FcRn (FCGRT heavy chain and B2M light chain) expressed on MDCK-hFcRn cells (human) (UniProt P55899). Description: cell-based or functional assay.
Chain of UniProt P55899 (P55899 24-365, chain 1 of 2): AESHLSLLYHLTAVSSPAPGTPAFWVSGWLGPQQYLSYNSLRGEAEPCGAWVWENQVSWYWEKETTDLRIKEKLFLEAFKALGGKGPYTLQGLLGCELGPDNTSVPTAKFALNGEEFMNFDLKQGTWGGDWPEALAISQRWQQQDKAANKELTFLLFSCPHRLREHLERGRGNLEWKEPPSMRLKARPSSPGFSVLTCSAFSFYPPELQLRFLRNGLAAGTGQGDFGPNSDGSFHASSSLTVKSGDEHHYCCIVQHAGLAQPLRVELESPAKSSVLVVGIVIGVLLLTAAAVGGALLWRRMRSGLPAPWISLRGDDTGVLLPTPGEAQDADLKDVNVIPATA
Chain of UniProt P55899 (P61769 21-119, chain 2 of 2, further chain): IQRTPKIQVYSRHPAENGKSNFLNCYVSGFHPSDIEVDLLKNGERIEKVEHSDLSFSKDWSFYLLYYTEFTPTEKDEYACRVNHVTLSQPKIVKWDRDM

anti-gD HAHQ (antibody) showed a recycling output of 0.6 ng/mL.

anti-gD YTE (antibody) yielded a recycling output of 1.9 ng/mL.

The record behind these values is US20240085404A1.
